What all share (assay): LC-MS/MS of proteins captured from pooled plasma by peptide-modified nanoparticles
One experiment has as its target T1, A0A0C4DGL1.
T1 construct: Protein found in pooled plasma by LC-MS/MS; only the UniProt ID is printed
As to the method: (§1) Provided herein are proteins that are captured by surfaces modified with peptides described herein. Briefly, surfaces are modified with the 10K-peptide-MaganinII. Pooled plasma samples containing proteins and the modified surfaces are combined and the surfaces are isolated and captured proteins are analyzed by liquid chromatography tandem mass spectrometry. The nanoparticle prepared in Example 5 was used and selected proteins that include those in Table 9. These proteins were captured by the peptide-modified surface, but not surfaces without peptide modification.

A further experiment has as its target T2, A0A0C4DH33.
T2 construct: Protein found in pooled plasma by LC-MS/MS; only the UniProt ID is printed
On the procedure:
as §1

The next experiment deals with T3, F8W7Q4.
T3 construct: Protein found in pooled plasma by LC-MS/MS; only the UniProt ID is printed
On the procedure: as §1

The next experiment has as its target T4, E7EQ47.
T4 construct: Protein found in pooled plasma by LC-MS/MS; only the UniProt ID is printed
As to the method: as §1

For another experiment, the target named is T5, A0A075B6K0.
T5 construct: Protein found in pooled plasma by LC-MS/MS; only the UniProt ID is printed
As to the method:
as §1

No end group written: not given here.

T2 sequence (A0A0C4DH33 20-117): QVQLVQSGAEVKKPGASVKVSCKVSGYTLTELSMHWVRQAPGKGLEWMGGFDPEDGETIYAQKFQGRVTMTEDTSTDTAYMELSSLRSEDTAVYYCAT
T5 sequence (A0A075B6K0 20-115): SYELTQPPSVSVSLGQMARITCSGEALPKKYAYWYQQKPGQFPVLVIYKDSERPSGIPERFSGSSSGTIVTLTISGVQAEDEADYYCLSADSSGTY

B1: 10K peptide-MaganinII coupled to Surface 428 nanoparticle (Surface 428-MaganinII) (peptide)
peptide: KKKKKKKKKKGIGKFLHSAKKFGKAFVGEIMNS
modifications: not fully specified; also: coupled through Sulfo-SMCC (maleimide) to thiols of Surface 428 nanoparticle, amine carrying SMCC not given here
notes: Many copies of the peptide stand on one nanoparticle; also called SMCC-MagaininII
As to B1, the “Median Intensity” value turned out to be 3.62 in the experiment with A0A0C4DGL1; 3.89 with A0A0C4DH33; 3.55 with F8W7Q4; 3.5 with E7EQ47; 3.81 in the experiment with A0A075B6K0.

The record behind these values is US20260056193A1 (SEER, published 2026).
